Measurements reported in US20230000950A1, “COMPOSITION COMPRISING GLUCAGON AND GLP-1 AND GIP RECEPTOR DUAL AGONIST AND THERAPEUTIC USE OF SAME” (HANMI PHARM. CO., LTD., priority 2019, published 2023).
Positions of bridges follow the written chain, without caps; N, C: chain ends. Non-standard residues stand in square brackets, D forms with d. No end group written: not given here. Aib = CC(C)(N)C(=O)O

Biological target: human glucagon receptor (human, UniProt P47871 26-477)
Sequence (P47871 26-477): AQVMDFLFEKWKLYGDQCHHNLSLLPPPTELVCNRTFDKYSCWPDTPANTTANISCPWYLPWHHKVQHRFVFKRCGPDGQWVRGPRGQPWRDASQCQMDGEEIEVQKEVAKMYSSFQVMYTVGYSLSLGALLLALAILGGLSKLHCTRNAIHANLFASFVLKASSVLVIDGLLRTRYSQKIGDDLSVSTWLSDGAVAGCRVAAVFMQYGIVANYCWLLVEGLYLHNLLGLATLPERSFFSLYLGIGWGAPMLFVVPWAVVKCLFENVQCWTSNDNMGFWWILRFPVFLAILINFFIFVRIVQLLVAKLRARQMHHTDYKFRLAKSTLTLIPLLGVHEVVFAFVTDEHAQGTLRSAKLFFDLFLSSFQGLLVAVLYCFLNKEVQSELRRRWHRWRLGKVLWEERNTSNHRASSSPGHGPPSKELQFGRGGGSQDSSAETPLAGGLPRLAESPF
Experiment: cell-based or functional assay
Details: not given
With HSQGTFTSDYSKYLDSCEADDFVQWLMNT [glucagon derivative of SEQ ID NO: 6] the “In vitro activity (relative activity to SEQ ID NO: 1, %), cAMP assay, from EC50” value was less than 0.1%.
For SQGTFTSDYSKYLDECRAKEFVQWLMNT (lactam 15-19) [glucagon derivative of SEQ ID NO: 32], the “In vitro activity (relative activity to SEQ ID NO: 1, %), cAMP assay, from EC50” value was 0.7%.
For YXQGTFTSDYSKYLDSRRAQDFVQWLMNT (X at position 2 = aminoisobutyric acid (Aib)) [glucagon derivative of SEQ ID NO: 33], the “In vitro activity (relative activity to SEQ ID NO: 1, %), cAMP assay, from EC50” value was 108%.
For Y[Aib]QGTFTSDYSKYLDSRRACDFRLWLMNT [glucagon derivative of SEQ ID NO: 18], the “In vitro activity (relative activity to SEQ ID NO: 1, %), cAMP assay, from EC50” value was less than 0.1%.
With Y[Aib]QGTFTSDYSKYLDSCDADDFVVWLINT [glucagon derivative of SEQ ID NO: 10] the “In vitro activity (relative activity to SEQ ID NO: 1, %), cAMP assay, from EC50” value was less than 0.1%.
For Y[Aib]QGTFTSDYSKYLDCKRAKEFVQWLMNT (lactam 17-21) [glucagon derivative of SEQ ID NO: 31], the “In vitro activity (relative activity to SEQ ID NO: 1, %), cAMP assay, from EC50” value was 6.3%.
In the case of Y[Aib]QGTFTSDYSKYLDEKCAKEFVQWLMNT [glucagon derivative of SEQ ID NO: 11], the “In vitro activity (relative activity to SEQ ID NO: 1, %), cAMP assay, from EC50” value is reported as 4.6%.
With W[Aib]QGTFTSDYSKYLDECRAKDFVQWLMNT (lactam 16-20) [glucagon derivative of SEQ ID NO: 26] the “In vitro activity (relative activity to SEQ ID NO: 1, %), cAMP assay, from EC50” value was 1%.
In the case of Y[Aib]QGTFTSDYSKYCDERRAKEFVQWLMNT (lactam 16-20) [glucagon derivative of SEQ ID NO: 35], the “In vitro activity (relative activity to SEQ ID NO: 1, %), cAMP assay, from EC50” value is reported as 17.7%.
In the case of Y[Aib]QGTFTSDYSKYLDCKRAKEFVQWLMNT [glucagon derivative of SEQ ID NO: 14], the “In vitro activity (relative activity to SEQ ID NO: 1, %), cAMP assay, from EC50” value is reported as 18.1%.
In the case of Y[Aib]QGTFVSDYSKYLDERRAKDFVQWLMNTC (lactam 16-20) [glucagon derivative of SEQ ID NO: 40], the “In vitro activity (relative activity to SEQ ID NO: 1, %), cAMP assay, from EC50” value is reported as 40.8%.
With Y[Aib]QGTFTSDYSKYLDCRRAQVFVQWLMRT [glucagon derivative of SEQ ID NO: 16] the “In vitro activity (relative activity to SEQ ID NO: 1, %), cAMP assay, from EC50” value was 4.2%.
For Y[Aib]QGTFTSDYSKYLDEKRCKEFVQWLMNT (lactam 16-20) [glucagon derivative of SEQ ID NO: 22], the “In vitro activity (relative activity to SEQ ID NO: 1, %), cAMP assay, from EC50” value was 148%.
With Y[Aib]QGTFTSDYSKYLDEKCAKEFVQWLMNT (lactam 16-20) [glucagon derivative of SEQ ID NO: 21] the “In vitro activity (relative activity to SEQ ID NO: 1, %), cAMP assay, from EC50” value was 57.8%.
For W[Aib]QGTFTSDYSKCLDERRAKDFVQWLMNT (lactam 16-20) [glucagon derivative of SEQ ID NO: 30], the “In vitro activity (relative activity to SEQ ID NO: 1, %), cAMP assay, from EC50” value was 0.3%.
For Y[Aib]QGTFTSDYSKYLDEKRAKCFVQWLMNT (lactam 16-20) [glucagon derivative of SEQ ID NO: 25], the “In vitro activity (relative activity to SEQ ID NO: 1, %), cAMP assay, from EC50” value was 46.9%.
For HSQGTFTSDYSKYLDSCDAQDFVQWLMNT [glucagon derivative of SEQ ID NO: 4], the “In vitro activity (relative activity to SEQ ID NO: 1, %), cAMP assay, from EC50” value was less than 0.1%.
For Y[Aib]QGTFVSDCSKYLDERRAKDFVQWLMNT (lactam 16-20) [glucagon derivative of SEQ ID NO: 39], the “In vitro activity (relative activity to SEQ ID NO: 1, %), cAMP assay, from EC50” value was 3.7%.
For W[Aib]QGTFVSDYSKYLDECRAKDFVQWLMNT (lactam 16-20) [glucagon derivative of SEQ ID NO: 28], the “In vitro activity (relative activity to SEQ ID NO: 1, %), cAMP assay, from EC50” value was less than 0.1%.
With Y[Aib]QGTFTSDYSKYLDSCDAQDFVQWLINT [glucagon derivative of SEQ ID NO: 8] the “In vitro activity (relative activity to SEQ ID NO: 1, %), cAMP assay, from EC50” value was less than 0.1%.
In the case of Y[Aib]QGTFTSDYSKYLDERRAKEFVQWLMNTC (lactam 16-20) [glucagon derivative of SEQ ID NO: 37], the “In vitro activity (relative activity to SEQ ID NO: 1, %), cAMP assay, from EC50” value is reported as 226%.
With Y[Aib]QGTFTSDYSKYLDECRAKEFVQWLMNT (lactam 16-20) [glucagon derivative of SEQ ID NO: 20] the “In vitro activity (relative activity to SEQ ID NO: 1, %), cAMP assay, from EC50” value was 300%.
For YSQGTFTSDYSKYLDSCEADDFVQWLMNT [glucagon derivative of SEQ ID NO: 7], the “In vitro activity (relative activity to SEQ ID NO: 1, %), cAMP assay, from EC50” value was less than 0.1%.
For Y[Aib]QGTFTSDYSCYLDEKRAKEFVQWLMNT [glucagon derivative of SEQ ID NO: 45], the “In vitro activity (relative activity to SEQ ID NO: 1, %), cAMP assay, from EC50” value was 5.2%.
For Y[Aib]QGTFCSDYSKYLDERRAKEFVQWLMNT (lactam 16-20) [glucagon derivative of SEQ ID NO: 38], the “In vitro activity (relative activity to SEQ ID NO: 1, %), cAMP assay, from EC50” value was 167%.
In the case of Y[Aib]QGTFTSDYSKCLDEKRAKEFVQWLMNT (lactam 16-20) [glucagon derivative of SEQ ID NO: 24], the “In vitro activity (relative activity to SEQ ID NO: 1, %), cAMP assay, from EC50” value is reported as 58%.
In the case of W[Aib]QGTFTSDYSKYCDERRAKEFVQWLMNT (lactam 16-20) [glucagon derivative of SEQ ID NO: 34], the “In vitro activity (relative activity to SEQ ID NO: 1, %), cAMP assay, from EC50” value is reported as 0.2%.
For Y[Aib]QGTFVSDYSKYLDECRAKDFVQWLMNT (lactam 16-20) [glucagon derivative of SEQ ID NO: 27], the “In vitro activity (relative activity to SEQ ID NO: 1, %), cAMP assay, from EC50” value was 93.6%.
In the case of Y[Aib]QGTFCSDYSKYLDERRAKDFVQWLMNT (lactam 16-20) [glucagon derivative of SEQ ID NO: 41], the “In vitro activity (relative activity to SEQ ID NO: 1, %), cAMP assay, from EC50” value is reported as 45.2%.
For Y[Aib]QGTFTSDYSKCLDERRAKDFVQWLMNT (lactam 16-20) [glucagon derivative of SEQ ID NO: 29], the “In vitro activity (relative activity to SEQ ID NO: 1, %), cAMP assay, from EC50” value was 61.3%.
With Y[Aib]QGTFCSDYSKYLDSRRAQDFVQWLMNT [glucagon derivative of SEQ ID NO: 42] the “In vitro activity (relative activity to SEQ ID NO: 1, %), cAMP assay, from EC50” value was 37.9%.
In the case of HSQGTFTSDYSKYLDCERAQDFVQWLMNT [glucagon derivative of SEQ ID NO: 3], the “In vitro activity (relative activity to SEQ ID NO: 1, %), cAMP assay, from EC50” value is reported as 6.1%.
For Y[Aib]QGTFTSDYSCYLDSRRAQDFVQWLMNT [glucagon derivative of SEQ ID NO: 13], the “In vitro activity (relative activity to SEQ ID NO: 1, %), cAMP assay, from EC50” value was 5.2%.
In the case of HSQGTFTSDYSKYLDSCEAQDFVQWLMNT [glucagon derivative of SEQ ID NO: 5], the “In vitro activity (relative activity to SEQ ID NO: 1, %), cAMP assay, from EC50” value is reported as 0.3%.
With Y[Aib]QGTFTSDCSKYLDERRAKEFVQWLMNT (lactam 16-20) [glucagon derivative of SEQ ID NO: 36] the “In vitro activity (relative activity to SEQ ID NO: 1, %), cAMP assay, from EC50” value was 9.9%.
For Y[Aib]QGTFTSDYSKYCDEKRAKEFVQWLMNT (lactam 16-20) [glucagon derivative of SEQ ID NO: 23], the “In vitro activity (relative activity to SEQ ID NO: 1, %), cAMP assay, from EC50” value was 76.8%.
In the case of HSQGTFTSDYSKYLDCDRAQDFVQWLMNT [glucagon derivative of SEQ ID NO: 2], the “In vitro activity (relative activity to SEQ ID NO: 1, %), cAMP assay, from EC50” value is reported as 0.6%.
With Y[Aib]QGTFTSDYSKYLDSCDAQDFVVWLINT [glucagon derivative of SEQ ID NO: 9] the “In vitro activity (relative activity to SEQ ID NO: 1, %), cAMP assay, from EC50” value was less than 0.1%.
In the case of Y[Aib]QGTFTSDCSKYLDSRRAQDFVQWLMNT [glucagon derivative of SEQ ID NO: 43], the “In vitro activity (relative activity to SEQ ID NO: 1, %), cAMP assay, from EC50” value is reported as 1.6%.
In the case of Y[Aib]QGTFTSDYSKYLCEKRAKEFVQWLMNT (lactam 16-20) [glucagon derivative of SEQ ID NO: 19], the “In vitro activity (relative activity to SEQ ID NO: 1, %), cAMP assay, from EC50” value is reported as 12.1%.
In the case of Y[Aib]QGTFTSDYSKYLDEKRAKEFVQWLMNTC (lactam 16-20) [glucagon derivative of SEQ ID NO: 12], the “In vitro activity (relative activity to SEQ ID NO: 1, %), cAMP assay, from EC50” value is reported as 56.3%.
With YXQGTFTSDYSKYLDSRRAQDFVQWLMNTC (X at position 2 = aminoisobutyric acid (Aib)) [glucagon derivative of SEQ ID NO: 44] the “In vitro activity (relative activity to SEQ ID NO: 1, %), cAMP assay, from EC50” value was 75.4%.
With Y[Aib]QGTFTSDYSKYLDCVRAQDFVQWLMRT [glucagon derivative of SEQ ID NO: 17] the “In vitro activity (relative activity to SEQ ID NO: 1, %), cAMP assay, from EC50” value was 23.2%.

Tested on: not given
Experiment: not given
Details: in vivo; cited from earlier work
In the case of contrave, the side effects is listed as “cardiovascular side effects”.

Same assay, conditions: reported; cited from earlier work
For CC(C)CC(N(C)C)C1(c2ccc(Cl)cc2)CCC1 (centres unmarked) [sibutramine], the side effects is given as “cardiovascular side effects”.
In the case of Cc1c(C(=O)NN2CCCCC2)nn(-c2ccc(Cl)cc2Cl)c1-c1ccc(Cl)cc1 [rimonabant], the side effects is given as “central nervous system side effects”.

Same assay, conditions: taken for one year; cited from earlier work
In the case of CCCCCCCCCCC[C@@H](C[C@@H]1OC(=O)[C@H]1CCCCCC)OC(=O)[C@H](CC(C)C)NC=O [orlistat], the “body weight loss effect” value is listed as “about 4 kg”.
